Values joined by “and” are separate entries in the source; they are usually repeats but may differ in a detail not shown here. Equal values may be shown once. Read-outs that look alike come from different tables or passages of the source. Residues, ends and D or L forms follow the SMILES beside them. No end group written: not given here.

Data on 54 molecules can be found in PMC10648141, “Screening of Oral Potential Angiotensin-Converting Enzyme Inhibitory Peptides from Zizyphus jujuba Proteins Based on Gastrointestinal Digestion In Vivo” (International Journal of Molecular Sciences, 2023).

The target in series [1] is T1, ACE (Homo sapiens, UniProt P12821).
T1 construct: purchased Sigma-Aldrich
Description: ACE-inhibitory activity assay in vitro (HHL substrate, hippuric acid by HPLC). The series is classed as biochemical. The note with it: for inhibition at 2000 µg/mL: 1 h; for IC50: five concentrations in triplicate. As for the experimental part:
The method used to determine ACE-inhibitory activity was designed according to that of Sangsawad et al. with minor modifications. […] The reaction mixture comprised 50 μL of peptide and 50 μL of ACE (25 mU/mL), undergoing pre-incubation for 5 min at 37 °C. Subsequently, 150 μL of substrate (8.3 mM HHL in 0.1 M Tris-HCl buffer with 500 mM NaCl at pH 8.3) was introduced, and the sample was further incubated at 37 °C for 60 min. Following the completion of the reaction, it was terminated via the addition of 1 M HCl. […] IC50 was used to express the activity of hydrolysate; all analyses were carried out under five different concentrations in triplicate.

Series [2] deals with T1, ACE. Details: method as in our group and the DFBP database. The note with it: ACE-inhibitory activity used as 3D-QSAR input (training set 34, test set 12 marked *); ref our group and the DFBP database; cited from earlier work.
The nature of series [3]: Stability of peptides after simulated gastrointestinal digestion in vitro. The note with it: pepsin (1000 U/mL) and pancreatin (50 U/mL); peptide 0.5 mg/mL; LC-MS (Q Exactive, ESI positive); peak area after/before digestion × 100. The series is classed as in vitro ADME. As for the experimental part: The stability in vitro digestion followed the method we reported previously with minor modifications. Pepsin (1000 U/mL) and pancreatin (50 U/mL) were used to digest the peptide (0.5 mg/mL). A Q Exactive system (Thermo Fisher Scientific, USA) equipped with ESI in positive ion mode was used for mass spectrometric detection. Stability %=Peak area after digestion sample/Peak area before digestion sample×100%

Where [4] appears, read: peptide 2 mg/mL, HHL substrate, pH 8.3, 37 °C, 60 min, HPLC of hippuric acid, read-out: ACE Inhibition Rate (%) (2 mg/mL).
The mark [5] stands for this setting: HHL substrate, pH 8.3, 37 °C, 60 min, HPLC of hippuric acid.

T1 sequence (P12821 30-1306, species assumed): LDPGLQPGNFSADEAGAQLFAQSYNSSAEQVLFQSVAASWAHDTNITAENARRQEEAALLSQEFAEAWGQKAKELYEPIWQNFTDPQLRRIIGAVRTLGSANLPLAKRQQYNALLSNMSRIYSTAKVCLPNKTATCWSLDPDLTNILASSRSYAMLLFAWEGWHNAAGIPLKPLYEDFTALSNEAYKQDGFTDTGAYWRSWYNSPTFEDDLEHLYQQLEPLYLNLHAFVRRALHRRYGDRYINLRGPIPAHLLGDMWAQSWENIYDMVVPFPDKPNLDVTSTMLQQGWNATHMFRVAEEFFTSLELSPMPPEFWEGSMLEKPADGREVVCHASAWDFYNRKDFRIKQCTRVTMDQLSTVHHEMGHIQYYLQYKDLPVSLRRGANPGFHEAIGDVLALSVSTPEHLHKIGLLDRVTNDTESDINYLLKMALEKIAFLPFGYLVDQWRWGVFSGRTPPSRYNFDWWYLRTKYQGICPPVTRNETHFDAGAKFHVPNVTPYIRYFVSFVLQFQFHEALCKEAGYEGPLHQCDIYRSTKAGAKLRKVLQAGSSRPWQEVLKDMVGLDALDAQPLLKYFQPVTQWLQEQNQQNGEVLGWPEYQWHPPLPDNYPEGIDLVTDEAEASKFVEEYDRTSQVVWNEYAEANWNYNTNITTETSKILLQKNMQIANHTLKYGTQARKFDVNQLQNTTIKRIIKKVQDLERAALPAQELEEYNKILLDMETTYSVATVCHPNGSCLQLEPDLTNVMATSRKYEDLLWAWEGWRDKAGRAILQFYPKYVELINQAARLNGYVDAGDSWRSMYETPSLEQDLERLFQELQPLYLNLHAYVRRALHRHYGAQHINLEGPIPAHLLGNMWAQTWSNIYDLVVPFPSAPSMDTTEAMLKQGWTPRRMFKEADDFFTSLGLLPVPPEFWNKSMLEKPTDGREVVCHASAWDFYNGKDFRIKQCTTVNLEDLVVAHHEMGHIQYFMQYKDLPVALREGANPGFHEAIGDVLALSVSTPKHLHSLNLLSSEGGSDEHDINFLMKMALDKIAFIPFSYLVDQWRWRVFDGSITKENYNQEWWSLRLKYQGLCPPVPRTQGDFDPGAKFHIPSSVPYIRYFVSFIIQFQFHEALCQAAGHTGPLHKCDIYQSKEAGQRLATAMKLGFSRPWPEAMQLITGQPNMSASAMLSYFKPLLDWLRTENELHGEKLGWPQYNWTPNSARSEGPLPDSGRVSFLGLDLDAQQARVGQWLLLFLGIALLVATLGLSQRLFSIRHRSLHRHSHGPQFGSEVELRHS

For `N=C(N)NCCC[C@H](NC(=O)[C@H](CCC(=O)O)NC(=O)[C@@H]1CCCN1)C(=O)N[C@@H](CCCCN)C(=O)O` [PERK] (H-PERK-OH), the inhibition at 2000 µg/mL in series [1] (setting [4]) was found to be 4.5%. Consider `N=C(N)NCCC[C@H](NC(=O)[C@@H]1CCCN1C(=O)[C@H](Cc1ccccc1)NC(=O)[C@@H](N)CCCNC(=N)N)C(=O)O` [RFPR] (H-RFPR-OH), for which the inhibition at 2000 µg/mL in series [1] (setting [4]) is 22.9%. Regarding `CC(C)C[C@H](NC(=O)[C@H](Cc1c[nH]cn1)NC(=O)[C@H](CC(C)C)NC(=O)[C@@H](N)Cc1ccc(O)cc1)C(=O)O` [YLHL] (H-YLHL-OH), the inhibition at 2000 µg/mL in series [1] (pH 8.3, read-out: ACE Inhibition Rate (%) (2 mg/mL)) was found to be 65.4%. Regarding “ADGLWL [ACEI peptide, 3D-QSAR training set]”, the PIC50 in series [2] is listed as -2.45.

Turning to AHSVRF [ACEI peptide, 3D-QSAR test set], the PIC50 in series [2] was -1.26. Take “AHSVRFY [ACEI peptide, 3D-QSAR test set]”: the PIC50 in series [2] is reported as -1.21. With “Ala-His-Ser-Val (AHSV) [ACEI peptide, 3D-QSAR training set]”, the PIC50 in series [2] was -3.26.

Consider “Asp-Phe-Gly [ACEI peptide, 3D-QSAR training set]”, for which, in series [2], the PIC50 is given as -1.65. Regarding “CCNKSV (cysteine pairing not given here) [ACEI peptide, 3D-QSAR test set]”, the PIC50 in series [2] is on record as -1.18. With “Cys-Cys-Asn-Lys (CCNK) [ACEI peptide, 3D-QSAR training set]”, the PIC50 in series [2] was -0.95. For “FCLYELAR [ACEI peptide, 3D-QSAR training set]”, in series [2], the PIC50 is listed as -1.50. “FPEVFGK [ACEI peptide, 3D-QSAR training set]”: the PIC50 in series [2] was -2.15.

For the molecule “FQKVVAK [ACEI peptide, 3D-QSAR test set]”, the PIC50 in series [2] is on record as -0.32. On to “GIPLPLI [ACEI peptide, 3D-QSAR training set]”, for which the PIC50 in series [2] is -1.87. “GKDAVIV [ACEI peptide, 3D-QSAR training set]”: in series [2], the PIC50 is on record as -1.26. In the case of “GRVSNCAA [ACEI peptide, 3D-QSAR training set]”, the PIC50 in series [2] is on record as -1.76.

As to “GYALPHA [ACEI peptide, 3D-QSAR training set]”, in series [2], the PIC50 is reported as -1.44.

Consider “Gln-Val-Gly-Pro (QVGP) [ACEI peptide, 3D-QSAR training set]”, for which, in series [2], the PIC50 is on record as -2.21. Take “His-Cys-His-Thr (HCHT) [ACEI peptide, 3D-QSAR training set]”: the PIC50 in series [2] is on record as -2.06. “His-Cys-His-Thr-Asn (HCHTN) [ACEI peptide, 3D-QSAR test set]”: the PIC50 in series [2] was -1.48. With “IGPGLGR [ACEI peptide, 3D-QSAR training set]”, the PIC50 in series [2] is reported as -2.32. For “IIAPPER [ACEI peptide, 3D-QSAR training set]”, the PIC50 in series [2] is -0.94. With KALVAP [KALVAP], in series [1] (setting [4]), the inhibition at 2000 µg/mL came out at 100%. For the same molecule, the midpoint of inhibition in series [1] (setting [5]), the IC50, lay at 17.1 µM. The “Simulated Gastrointestinal Digestion Stability %” value in series [3] is 78%. With KVKPL [KVKPL], in series [1] (setting [4]), the inhibition at 2000 µg/mL was -14.2%. For “KVREGTTY [ACEI peptide, 3D-QSAR training set]”, the PIC50 in series [2] is listed as -2.01.

Take LEKLVT [LEKLVT]: the inhibition at 2000 µg/mL in series [1] (setting [4]) came to 30.5%. On to LEKPLL [LEKPLL], for which the inhibition at 2000 µg/mL in series [1] (setting [4]) is 24.2%. Consider “LGPLGHQ [ACEI peptide, 3D-QSAR training set]”, for which the PIC50 in series [2] is given as -0.63.

With “LHPGDAQR [ACEI peptide, 3D-QSAR training set]”, in series [2], the PIC50 is listed as -1.01.

As to “LPGVLPVA [ACEI peptide, 3D-QSAR test set]”, the PIC50 in series [2] is 0.11.

In the case of “LPQNILP [ACEI peptide, 3D-QSAR test set]”, the PIC50 in series [2] is -1.66. For the molecule “LVLPGE [ACEI hexapeptide of the authors' previous studies; alignment template, training set]”, the PIC50 in series [2] is on record as -1.13. Take “LVLPGELAK [ACEI peptide, 3D-QSAR training set]”: the PIC50 in series [2] is given as -2.26. Regarding “Leu-Ala-Lys [ACEI peptide, 3D-QSAR test set]”, the PIC50 in series [2] is listed as -1.68. For “Leu-Gln-Lys-Trp (LQKW) [ACEI peptide, 3D-QSAR test set]”, the PIC50 in series [2] is reported as -1.54. Take “Leu-Phe-Arg-Gln (LFRQ) [ACEI peptide, 3D-QSAR test set]”: in series [2], the PIC50 is -1.23. For “Leu-Val-Leu [ACEI peptide, 3D-QSAR training set]”, the PIC50 in series [2] is given as -1.09. Turning to “Lys-Ser-Val [ACEI peptide, 3D-QSAR training set]”, the PIC50 in series [2] was -3.01. Regarding “NMAINPSK [ACEI peptide, 3D-QSAR training set]”, the PIC50 in series [2] is on record as -1.78.

Take “PANIKWGD [ACEI peptide, 3D-QSAR training set]”: the PIC50 in series [2] is listed as -1.32.

For the molecule PRPKPPP [PRPKPPP], the inhibition at 2000 µg/mL in series [1] (setting [4]) is 74.8%. For “PTHIKWGD [ACEI peptide, 3D-QSAR training set]”, the PIC50 in series [2] was -0.18. For “Phe-Pro-Gln-Tyr (FPQY) [ACEI peptide, 3D-QSAR training set]”, the PIC50 in series [2] is listed as -2.48. As for “Pro-Ser-Phe-Gln-Pro (PSFQP) [ACEI peptide, 3D-QSAR training set]”, in series [2], the PIC50 is reported as -1.86.

In the case of RLPHV [RLPHV], in series [1] (setting [4]), the inhibition at 2000 µg/mL amounted to 100%. In addition, the IC50 in series [1] (setting [5]) is 3.81 µM and 6.01 µM. In series [3], the “Simulated Gastrointestinal Digestion Stability %” value is 82%. Turning to “Ser-Leu-Pro-Gln-Asn (SLPQN) [ACEI peptide, 3D-QSAR training set]”, the PIC50 in series [2] is on record as -0.98. As for “TFQGPPHGIQVER [ACEI peptide, 3D-QSAR training set]”, in series [2], the PIC50 is given as -0.53.

Take TVKPGL [TVKPGL]: the inhibition at 2000 µg/mL in series [1] (setting [4]) came out at 100%. In addition, the IC50 in series [1] (setting [5]) is 6.01 µM and 3.81 µM. In addition, the “Simulated Gastrointestinal Digestion Stability %” value in series [3] is on record as 90%. For TYLPVH [ACEI peptide, 3D-QSAR test set], in series [2], the PIC50 is on record as -0.14. Turning to “Tyr-Pro-Gly [ACEI peptide, 3D-QSAR training set]”, the PIC50 in series [2] is listed as -1.37. Consider “Tyr-Thr-Val-Phe (YTVF) [ACEI peptide, 3D-QSAR training set]”, for which the PIC50 in series [2] was -1.94. On to “Val-His-Leu-Pro-Pro (VHLPP) [ACEI peptide, 3D-QSAR test set]”, for which the PIC50 in series [2] was -1.26.

Take “Val-Leu-Pro-Tyr-Pro (VLPYP) [ACEI peptide, 3D-QSAR training set]”: the PIC50 in series [2] is on record as -1.56. With “YETGNGIK [ACEI peptide, 3D-QSAR training set]”, the PIC50 in series [2] is -0.57.

Usually IC50 stands for the midpoint of a concentration-inhibition curve.
